Patent publication US20210122826A1

How the values were obtained:
Human CD209 (human) = Human CD209 (human) (UniProt Q9NNX6); experiment: flow, Jurkat, 100 nM Ab
Human CD94 (human) = Human CD94 (human) (UniProt Q13241); experiment: flow, Jurkat, 100 nM Ab
Human Clec10A (human) = Human Clec10A (human) (UniProt Q8IUN9); experiment: flow, Jurkat, 100 nM Ab
Human Clec12B (human) = Human Clec12B (human) (UniProt Q2HXU8); experiment: flow, Jurkat, 100 nM Ab
Human Clec4E (human) = Human Clec4E (human) (UniProt Q9ULY5); experiment: flow, Jurkat, 100 nM Ab
Human Clec4E (human), sequence (Q9ULY5 whole entry): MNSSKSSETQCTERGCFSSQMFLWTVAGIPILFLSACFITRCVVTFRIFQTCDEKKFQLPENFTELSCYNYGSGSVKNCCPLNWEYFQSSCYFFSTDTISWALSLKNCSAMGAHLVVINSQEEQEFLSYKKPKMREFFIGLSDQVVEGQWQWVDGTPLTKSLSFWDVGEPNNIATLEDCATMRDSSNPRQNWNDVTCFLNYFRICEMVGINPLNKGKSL

Human Clec5A (human) = Human Clec5A (human) (UniProt Q9NY25); experiment: flow, Jurkat, 100 nM Ab
Human Clec5A (human), sequence (Q9NY25 whole entry): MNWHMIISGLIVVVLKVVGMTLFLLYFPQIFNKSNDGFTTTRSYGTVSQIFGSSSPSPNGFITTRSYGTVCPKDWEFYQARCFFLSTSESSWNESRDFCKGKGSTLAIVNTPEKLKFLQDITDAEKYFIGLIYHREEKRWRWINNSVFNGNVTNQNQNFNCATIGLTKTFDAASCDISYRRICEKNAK

Human Clec7A (human) = Human Clec7A (human) (UniProt Q9BXN2); experiment: flow, Jurkat, 100 nM Ab
Human Clec7A (human), sequence (Q9BXN2 whole entry): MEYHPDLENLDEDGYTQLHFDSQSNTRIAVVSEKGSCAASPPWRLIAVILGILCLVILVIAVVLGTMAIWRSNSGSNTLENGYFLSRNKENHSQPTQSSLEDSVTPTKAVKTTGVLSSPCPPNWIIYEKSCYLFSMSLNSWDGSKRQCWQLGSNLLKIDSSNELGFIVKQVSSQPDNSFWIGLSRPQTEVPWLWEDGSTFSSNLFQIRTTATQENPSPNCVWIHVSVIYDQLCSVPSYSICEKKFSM

Human Clec9A (human) = Human Clec9A (human) (UniProt Q6UXN8); experiment: flow, Jurkat, 100 nM Ab
Human Clec9A (human), sequence (Q6UXN8 whole entry): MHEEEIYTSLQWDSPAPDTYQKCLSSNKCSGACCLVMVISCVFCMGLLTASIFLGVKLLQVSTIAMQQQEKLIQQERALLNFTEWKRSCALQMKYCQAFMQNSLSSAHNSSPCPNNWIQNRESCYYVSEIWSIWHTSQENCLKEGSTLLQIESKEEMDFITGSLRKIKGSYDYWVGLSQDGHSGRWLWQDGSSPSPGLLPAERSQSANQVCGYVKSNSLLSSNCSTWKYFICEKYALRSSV

Human KLRF1 (human) = Human KLRF1 (human) (UniProt Q9NZS2); experiment: flow, Jurkat, 100 nM Ab
Human KLRF1 (human), sequence (Q9NZS2 whole entry): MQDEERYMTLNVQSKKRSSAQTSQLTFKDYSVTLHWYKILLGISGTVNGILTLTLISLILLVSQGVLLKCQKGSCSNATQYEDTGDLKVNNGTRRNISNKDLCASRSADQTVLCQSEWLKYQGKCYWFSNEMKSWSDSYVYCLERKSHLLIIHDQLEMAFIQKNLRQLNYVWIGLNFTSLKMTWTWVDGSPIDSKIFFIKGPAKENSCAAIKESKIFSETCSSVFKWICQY

Human KLRF2 (human) = Human KLRF2 (human) (UniProt D3W0D1); experiment: flow, Jurkat, 100 nM Ab
Human KLRF2 (human), sequence (D3W0D1 whole entry): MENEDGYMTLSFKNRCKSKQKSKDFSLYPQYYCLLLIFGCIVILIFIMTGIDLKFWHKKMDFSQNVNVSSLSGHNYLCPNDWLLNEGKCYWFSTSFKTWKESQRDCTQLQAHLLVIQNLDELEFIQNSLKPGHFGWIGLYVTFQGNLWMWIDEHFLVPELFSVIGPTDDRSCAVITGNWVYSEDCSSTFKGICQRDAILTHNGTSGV

Human KLRG1 (human) = Human KLRG1 (human) (UniProt Q96E93); experiment: flow, Jurkat, 100 nM Ab
Human KLRG1 (human), sequence (Q96E93 whole entry): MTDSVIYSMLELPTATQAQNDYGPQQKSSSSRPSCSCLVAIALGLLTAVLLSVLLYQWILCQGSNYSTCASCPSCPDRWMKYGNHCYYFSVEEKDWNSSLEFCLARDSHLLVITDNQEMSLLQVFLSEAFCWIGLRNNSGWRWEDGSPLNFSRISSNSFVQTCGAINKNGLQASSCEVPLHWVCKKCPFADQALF

Human OLR1 (human) = Human OLR1 (human) (UniProt P78380); experiment: flow, Jurkat, 100 nM Ab
[1] = target: cynomolgus CD161 (cynomolgus); experiment: flow, Jurkat, 100 nM Ab
cynomolgus CD161 (cynomolgus), sequence (chain, as listed by the source limits assumed): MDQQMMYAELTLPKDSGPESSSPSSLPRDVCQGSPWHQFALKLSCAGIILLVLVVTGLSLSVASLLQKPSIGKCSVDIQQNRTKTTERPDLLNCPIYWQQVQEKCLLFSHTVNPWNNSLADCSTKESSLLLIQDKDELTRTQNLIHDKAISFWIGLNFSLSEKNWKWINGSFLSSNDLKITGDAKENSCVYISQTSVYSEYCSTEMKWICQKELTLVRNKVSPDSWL

human CD161 (human) [2] = target: human CD161 (human) (UniProt Q12918); experiment: flow, Jurkat, 100 nM Ab
[3] = target: cynomolgus CD161 (cynomolgus); experiment: flow, Jurkat, Ab titration
human CD161 (human) [4] = target: human CD161 (human) (UniProt Q12918); experiment: flow, Jurkat, Ab titration
human CD161 (human) [5] = target: human CD161 (human) (UniProt Q12918); experiment: flow cytometry titration of antibody on Jurkat hCD161+ cells, fluorescent secondary antibody, MFI against Ab concentration (log [M])
[6] = target: cynomolgus CD161 (cynomolgus); experiment: flow cytometry titration of antibody on Jurkat cynoCD161+ cells, fluorescent secondary antibody, MFI against concentration (log [M])

Human Clec10A (human), sequence (Q8IUN9 whole entry): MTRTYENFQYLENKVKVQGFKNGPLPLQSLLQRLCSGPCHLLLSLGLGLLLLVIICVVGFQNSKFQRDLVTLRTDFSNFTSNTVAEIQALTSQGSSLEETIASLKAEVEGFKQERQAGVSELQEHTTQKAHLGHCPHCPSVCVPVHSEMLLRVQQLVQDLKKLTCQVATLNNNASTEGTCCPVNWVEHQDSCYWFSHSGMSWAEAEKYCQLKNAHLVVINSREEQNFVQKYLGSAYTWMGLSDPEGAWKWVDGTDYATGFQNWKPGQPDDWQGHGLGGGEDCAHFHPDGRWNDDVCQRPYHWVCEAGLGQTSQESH
Human CD94 (human), sequence (Q13241 whole entry): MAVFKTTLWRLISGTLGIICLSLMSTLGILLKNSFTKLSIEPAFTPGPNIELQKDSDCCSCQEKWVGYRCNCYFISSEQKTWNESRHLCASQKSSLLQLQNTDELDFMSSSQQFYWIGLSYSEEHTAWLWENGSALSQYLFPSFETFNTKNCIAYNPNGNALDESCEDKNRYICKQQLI
Human Clec12B (human), sequence (Q2HXU8 whole entry): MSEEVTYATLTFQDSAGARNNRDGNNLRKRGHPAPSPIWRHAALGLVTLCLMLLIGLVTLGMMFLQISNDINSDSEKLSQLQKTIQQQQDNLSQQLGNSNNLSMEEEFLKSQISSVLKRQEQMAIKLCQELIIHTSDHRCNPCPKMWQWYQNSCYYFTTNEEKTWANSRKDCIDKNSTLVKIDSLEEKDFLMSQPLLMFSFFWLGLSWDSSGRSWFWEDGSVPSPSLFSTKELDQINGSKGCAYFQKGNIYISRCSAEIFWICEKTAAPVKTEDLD
Human CD209 (human), sequence (Q9NNX6 whole entry): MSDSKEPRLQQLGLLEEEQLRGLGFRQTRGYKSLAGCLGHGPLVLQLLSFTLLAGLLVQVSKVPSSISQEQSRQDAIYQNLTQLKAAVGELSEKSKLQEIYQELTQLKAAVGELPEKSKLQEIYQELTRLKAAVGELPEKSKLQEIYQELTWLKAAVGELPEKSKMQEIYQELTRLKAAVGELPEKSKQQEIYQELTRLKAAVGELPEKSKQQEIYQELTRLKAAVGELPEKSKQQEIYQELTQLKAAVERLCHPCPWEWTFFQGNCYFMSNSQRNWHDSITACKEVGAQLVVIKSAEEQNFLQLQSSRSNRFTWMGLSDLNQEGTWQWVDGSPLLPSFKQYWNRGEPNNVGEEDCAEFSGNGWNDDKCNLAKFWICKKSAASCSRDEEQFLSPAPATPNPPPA

MFI normalized to WT (Human CD209 (human)): 1.01
MFI normalized to WT (Human CD94 (human)): 1
MFI normalized to WT (Human Clec10A (human)): 1
MFI normalized to WT (Human Clec12B (human)): 1.1
MFI normalized to WT (Human Clec4E (human)): 1
MFI normalized to WT (Human Clec5A (human)): 1.08
MFI normalized to WT (Human Clec7A (human)): 1.16
MFI normalized to WT (Human Clec9A (human)): 1.09
MFI normalized to WT (Human KLRF1 (human)): 0.94
MFI normalized to WT (Human KLRF2 (human)): 1.07
MFI normalized to WT (Human KLRG1 (human)): 1.07
MFI normalized to WT (Human OLR1 (human)): 1.01
MFI normalized to WT [1]: 46.7
MFI normalized to WT (human CD161 (human) [2]): 75.2
Kd [3]: 1.18 nM
Kd (human CD161 (human) [4]): 1.67 nM
EC50 (read off the curve) (human CD161 (human) [5]): 2 nM
EC50 (read off the curve) [6]: 1 nM
Substance: mouse anti-human CD161 antibody HP-3G10
